{"source": "paper PMC4760936", "about": "(PLoS ONE, 2016)", "binders": {"B1": {"name": "sdAb E2 (VHH)", "VHH": "EVQLQASGGGLVQAGGSLRLTCAASGRTFGSYAMGWFRQAPGKEREFVAAISWSGGDTYADSVKGRFTISRDNAKNTVYLQMNSLAPEDTAVYSCAAVGARYYISKDAKDYGYWGQGTQVTVSS", "notes": "also called Class A exemplar"}, "B2": {"name": "sdAb D9 (VHH)", "VHH": "EVQLQASGGGLAQAGDSLRLSCAASIRTFGSYAMGWFRQAPGKEREFVAAISWSGGDTYADSAKGRFTISRDNAKNMMYLQMNSLAPEDTAVYFCAIVEAKYYISKDARDYGYWGQGTQVFVSS", "notes": "also called Class C exemplar"}}, "biological_target": "staphylococcal enterotoxin B (Staphylococcus aureus, strain , UniProt P01552)", "sequence (P01552 28-266)": "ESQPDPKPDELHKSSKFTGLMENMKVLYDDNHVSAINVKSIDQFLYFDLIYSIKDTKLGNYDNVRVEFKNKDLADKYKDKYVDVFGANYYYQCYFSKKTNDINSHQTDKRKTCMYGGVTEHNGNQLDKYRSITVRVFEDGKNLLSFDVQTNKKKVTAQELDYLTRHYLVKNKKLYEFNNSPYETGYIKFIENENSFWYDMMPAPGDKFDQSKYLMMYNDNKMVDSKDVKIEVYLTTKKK", "assay": "SPR; ProteOn XPR36; […] (10 mM acetate pH 5.0); […]; Langmuir model", "conditions": "both partners purified"}
{"binder": "B1", "values": [{"measurement": "Kd", "value": 0.27, "unit": "nM"}, {"measurement": "koff", "value": 0.0035, "unit": "s⁻¹"}, {"measurement": "kon", "value": "1.3e+07", "unit": "M⁻¹ s⁻¹"}]}
{"binder": "B2", "values": [{"measurement": "Kd", "value": 0.11, "unit": "nM"}, {"measurement": "koff", "value": 0.00028, "unit": "s⁻¹"}, {"measurement": "kon", "value": "2.5e+06", "unit": "M⁻¹ s⁻¹"}]}
